Source: patent US20230176070A1
Substitutions are numbered along the chain they refer to. One block for each binder: values may come before it.

Target: glutathione S-transferase [GST: P08515]
Test: indirect ELISA, GST coated

Chain of glutathione S-transferase [GST: P08515] (P08515 whole entry): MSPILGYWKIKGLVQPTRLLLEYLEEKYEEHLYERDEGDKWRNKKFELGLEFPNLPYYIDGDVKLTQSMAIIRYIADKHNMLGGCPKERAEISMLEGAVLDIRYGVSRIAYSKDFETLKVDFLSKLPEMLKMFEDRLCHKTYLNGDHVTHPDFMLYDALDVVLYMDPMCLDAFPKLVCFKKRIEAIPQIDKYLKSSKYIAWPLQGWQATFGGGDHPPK

B3: G49 (VHH)
VHH: EVQLVESGGGLVQAGGSLRLSCAASRSTFSINAAGWYRQAPGKQRELVAAISSGGSANYADSVKGRFIISRDNAKNTVYLQMNSLKPEDTAVYYCRVPYYRDDGYEYYSWGQGTQVTVSS
ELISA affinity (LogIC50 (oD450nm)): 5.54

B7: G20 (VHH)
VHH: DVQLVESGGGLVQAGGSLRLSCAASERTFSRYMLGWFRQAPGKEREFVGVMGWSDSDTYYGDAVKGRFTISRDNVKNTIYLQMKSLKPEDTAVYYCAASAYGSTRNHKLYEYWGQGTQVTVSS
ELISA affinity (LogIC50 (oD450nm)): 2.43

B8: G14 (VHH)
VHH: EVQLVESGGGLVQAGGSLRLSCAASGSTFDTNPIGWYRQAPGKQRDLVAMITSGGHTNYADSVKGRFTISRDNAKNTVYLQMNSLKPEDTAVYYCTVPHYREDGYEYHFWGQGTQVTVSS
ELISA affinity (LogIC50 (oD450nm)): 5.27

B9: G19 (VHH)
VHH: B8 VHH with E1Q, D30S, P33A, I34V, G35D, K43N, M50T, T96A, H108R
ELISA affinity (LogIC50 (oD450nm)): 9

B10: G15 (VHH)
VHH: B8 VHH with E1Q, F109C
ELISA affinity (LogIC50 (oD450nm)): 4.61

B13: G43 (VHH)
VHH: EVQLVESGGGLVQAGGSLRLSCATSGRTSSTYAMGWFRQRPGKEREFVATIHWGVGSTIYADSVKGRFTLSRDNAQNTVYLQMNSLKPEDTAVYYCAASTYRIGSYDVSTSQGYNYWGQGTQVTVSS
ELISA affinity (LogIC50 (oD450nm)): 4.32

B15: G41 (VHH)
VHH: DVQLVESGGGLVQAGGSLRLSCVASGHTVSNYAMAWFRQAPGKEREFVAGISWRASITYYRDSVKGRFTISRDNAKNTVYLQMSSLKPEDTAVYYCASDKTHYVSRGTSLVEYDYWGQGTQVTVSS
ELISA affinity (LogIC50 (oD450nm)): 1.02

B16: G25 (VHH)
VHH: EVQLVESGGGLVQAGGSLRLSCAASGRTFSGRTFSDYPMAWFRQAPGKEREFLATISTSGSRTYYADSVKGRFTISRDNAKDTVYLQMNSLKPEDAAIYYCAARQGSYYSDYNRALPGEYDYWGQGTQVTVSS
ELISA affinity (LogIC50 (oD450nm)): 1.57

B17: G27 (VHH)
VHH: DVQLVESGGDLVQAGGSLRLSCSASGNIFKINDMDWYRQAPGKQRELVARISSSGSTNYADSVKGRFTISRDNGKNTVYLQMNRVKPEDTAVYYCNADVQVSRNYEYEYWGQGTQVTVSS
ELISA affinity (LogIC50 (oD450nm)): 1.36

B18: G1 (VHH)
VHH: QVQLVESGGGLVQAGGSLRLSCAAPGSTFSTNIIAWYRQPPGKQRELVAAIGGPGSTNYADSVKGRFTISRDNAKNTGYLQMKSLKPDDTAVYYCNMVTQRGNEYWGQGTQVTVSS
ELISA affinity (LogIC50 (oD450nm)): 2.93

B19: G50 (VHH)
VHH: EVQLVESGGGLVQAGGSLRLSCAASGRTFSRYHMGWFRQAPGKERDVVAAISWSGDSTYYADSVKGRFTISKDNAKNTVYLQMDSLKPEDTAVYYCATLSGWDGDTIFPAGSWGQGTQVTVSS
ELISA affinity (LogIC50 (oD450nm)): 1.09

B21: G44 (VHH)
VHH: DVQLVESGGGLVQAGGSLRLSCVASGPIFSFSTGGWYRQAPGKQRELVAALTGGGNTNYADSVKGRFTISRDNAKNTVYLQMNLLKPEDTAVYYCQVMYYSGYDGYESTSWGQGTQVTVSS
ELISA affinity (LogIC50 (oD450nm)): 3.06

B22: G16 (VHH)
VHH: EVQLVESGGGLVQPGGSLRLSCAASGSTFSINAIGWYRQAPGKEREFVAALRWPGNIWYYADFVEGRITISRDNAKNTVYLQMNSLKPEDTAVYYCAARPENRGSYRDAATYDFWGQGTQVTVSS
ELISA affinity (LogIC50 (oD450nm)): 5.68

B23: G42 (VHH)
VHH: HVQLVESGGGFVQAGGSLRLSCEASGRTFNVYTMGWFRQAPGKEREFVGSISWNGGSTYYADSVKGRFTISRDNAKNTVYLQMNSLEPEDTAVYYCAARRQSHLRLDLSVIDAWGKGTQVTVSS
ELISA affinity (LogIC50 (oD450nm)): 2.63

B25: G12 (VHH)
VHH: B3 VHH with E1Q, S30R, Q44E, A50R, A57T, I68T, R96N, D102E, Y108D, S109A
ELISA affinity (LogIC50 (oD450nm)): 4.21

B28: G39 (VHH)
VHH: HVQLVESGGELVQSGSSLRLSCAASGFDLDDYAIGWFRQAPGKEREGVSCTSTSDGPTSYLDSVKGRFTFSRDNAKNTLYLQMNSLKPEDTAVYYCAAISHIFAEDAPAMGLCWDQRSAFWYWGQGTQVTVSS
ELISA affinity (LogIC50 (oD450nm)): 1.65

B29: G30 (VHH)
VHH: QVQLVESGGGLVQAGGSLRLSCAASGRTINNYDMGWFRQAPGKEREFVAAITWSGRDTNYADSVKGRFTVSRDDAKNTVYLQMNTLSPEDTAVYYCASARIQFYRLVAATRTDYSYWGQGTQVTVSS
ELISA affinity (LogIC50 (oD450nm)): 4.86

B30: G37 (VHH)
VHH: EVQLVESGGGLVQAGDSLRLSCVASGDTFTSYTVGWFRQAPGKEQEFVAGISWSGRSTDYADFVKGRATISKDIAKVSLQMNALKPEDTAVYSCAAKKVDWSSDYVTNYDYDYRGRGTQVTVSS
ELISA affinity (LogIC50 (oD450nm)): 1.78

B31: G23 (VHH)
VHH: QVQLVESGGGLVQPGGSLRLSCAASGFTFSVNTMSWVRQAPGKGREWVSGIESHGNTYYSDSVKGRFTISRDNAKNTLYLQMNSLKPEDTAVYYCATGIYGTTRNWGQGTQVTVSS
ELISA affinity (LogIC50 (oD450nm)): 2.54

B32: G8 (VHH)
VHH: QVQLVESGGGLVQAGGSLRLSCAASGITSSIASMGWFRQAPGKEEEFVARIRWNTDNTYYADSVKGRFTISRDNAQNTVYLQMNRLKPEDTAVYYCVARRGWSDLLYDYRGQGTQVTVSS
ELISA affinity (LogIC50 (oD450nm)): 4.66

B33: G45 (VHH)
VHH: EVQLVESGGGLVQPGGSLRLSCAASGSIFSINSMGWYRQAPGKQRELVAAITSGGSTNYANSVKGRFTISRNNARNTVWLQMNSLKPEDTAVYYCNADLNVVRGYSGDYHGSSDYWGQGTQVTVSS
ELISA affinity (LogIC50 (oD450nm)): 3.17

More lines, now with the values ahead:

ELISA affinity (LogIC50 (oD450nm)): 2.16
B1: G93 (VHH)
VHH: QVQLVESGGGLVQPGGSLRLSCAASGSGFSSSIIGWHRQAPGKQRELVAAIGGPGSTNYADSVKGRFTISRDNAKNTAYLQMNNLKPEDSAVYYCEATTRSGREYWGQGTQVTVSS

ELISA affinity (LogIC50 (oD450nm)): 5.54
B2: G86 (VHH)
VHH: EVQLVESGGGLVQAGDSLRLSCAASGRTFSSYTMGWFRQAPGKEREFVAGIRWSGGSTYFTNYEDSVKGRFTISKDNAKNTVFLQMNSLRPEDTAVYYCAFTGHYSTYDSPQRYDYWGQGTQVTVSS

ELISA affinity (LogIC50 (oD450nm)): 5.83
B4: G90 (VHH)
VHH: DVQLVESGGGLVQAGGSLRLSCAASGLTFSNYAMGWFRQAPGKEREFAAGITWNGGASHYADSVKGRFTISRDNAQNTVYLQMNSLKPEDTAVYYCAARLGSVAYPGLRYDYWGQGTQVTVSS

ELISA affinity (LogIC50 (oD450nm)): 6.77
B5: G96 (VHH)
VHH: DVQLVESGGGLVQAGGSLKLSCAAFGVTFDINTIAWYRQAPGKQREFVAHITSGGTTYYADSVKARFTMSRDSAKNTVYLQMNNLKPEDTAVYYCNVNPTWPYSGEVDYWGQGTQVTVSS

ELISA affinity (LogIC50 (oD450nm)): 4.45
B6: G51 (VHH)
VHH: B5 VHH with D1Q, F25S, V27I, D30S, A35G, G54D, G55S, M69I, Y79H, S104G

ELISA affinity (LogIC50 (oD450nm)): 1.15
B11: G91 (VHH)
VHH: EVQLVESGGGLVQAGGSLRLSCAASGRTFSDYPMAWFRQALGKEREFLATISTSGSRTMYADSVKGRFTISRDNAKNMMYLQMNSLKPEDAAVYYCAARQGSYYSDYNRALPGEYHYWGQGTQVTVSS

ELISA affinity (LogIC50 (oD450nm)): 2.07
B12: G79 (VHH)
VHH: B13 VHH with E1D, S29F, M34A, G54N, V55D, S57R, I59L, S99Y, N115D

ELISA affinity (LogIC50 (oD450nm)): 4.67
B14: G98 (VHH)
VHH: B13 VHH with E1Q, G16D, S29F, M34A, G54N, V55D, S57R, I59L, N115D

ELISA affinity (LogIC50 (oD450nm)): 2.08
B20: G78 (VHH)
VHH: DVQLVESGGGLVQAGGSLRLSCTASQSILYINVMGWYRQAPGKQRELVAEIPTGGNTDYADSVKGRFTISRDNVKNTVSLQMNSLKPEDTAVYYCNVRGGVLSPYDYWGQGTQVTVSS

ELISA affinity (LogIC50 (oD450nm)): 3.3
B24: G97 (VHH)
VHH: EVQLVESGGGLVQAGGSLRLSCTASRSTFRVNPAGWYRQAPGKERELVARITSGGSTNYADSVKGRFTISRDNAKNTVYLQMNSLKPEDTAVYYCNVPCYMEDGYEHDAWGQGTQVTVSS

ELISA affinity (LogIC50 (oD450nm)): 5.74
B26: G89 (VHH)
VHH: EVQLVESGGGLVQAGGSLSLSCAASGSINSINAMGWFRQAPGKQRELVATITRGGSTNYADSVKGRFTISIDNAKNTVYLQMNSLKPEDTAVYYCNADRGTDDGWLYDYWGQGTQVTVSS

ELISA affinity (LogIC50 (oD450nm)): 4.43
B27: G80 (VHH)
VHH: QVQLVESGGGLVQAGASLRLSCAASRGTFSSYTMGWFRQAPGKERLFVASISRDGGTTYYADSVKGRFTISRDNAENILYLQMNSLKPEDTAVYYCAAASRHPSTWEVWGLEYYYWGQGTQVTVSS
